Test results as given in the supplement of paper PMC10065799, “High-throughput profiling of sequence recognition by tyrosine kinases and SH2 domains using bacterial peptide display” (eLife, 2023).

Assays:
AncSZ = assay: phosphorylation enrichment, bacterial display (enrichment ratio); higher = better substrate or ligand; peptides without Tyr show the background
EPHB1 = EPHB1 (UniProt P54762); assay: as above
EPHB2 = EPHB2 (UniProt P29323); assay: as above
FGFR1 = FGFR1 (UniProt P11362); assay: as above
FGFR3 = FGFR3 (UniProt P22607); assay: as above
Fer (mouse) = assay: as above
Fes = Fes (UniProt P07332); assay: as above
Fyn = Fyn (UniProt P06241); assay: as above
Hck = Hck (UniProt P08631); assay: as above
Jak2 = Jak2 (UniProt O60674); assay: as above
MERTK = MERTK (UniProt Q12866); assay: as above
c-Abl (mouse) = assay: as above
c-Src = assay: as above
Grb2 SH2 = Grb2 SH2 (UniProt P62993); assay: SH2 binding enrichment of the phosphorylated peptide, bacterial display (enrichment ratio); higher = better substrate or ligand; peptides without Tyr show the background
SHP2-C SH2 = assay: as above
c-Src SH2 = assay: as above
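Wherever SH2 binding enrichment of the phosphorylated peptide, bacterial display is given: peptide library displayed on the E. coli surface as eCPX fusions, selected cells deep-sequenced, score is each peptide's frequency after selection divided by its frequency in the input.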
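Wherever phosphorylation enrichment, bacterial display is given: 11-residue human phosphosite peptides and single-mutation variants displayed on the E. coli surface, counted by deep sequencing, each peptide's frequency after selection divided by its frequency in the unselected input library; frequency after pTyr selection over input frequency; kinase dosed for 20-30% of maximal phosphorylation in three min.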

FGFR3, sequence (P22607 whole entry, looked up): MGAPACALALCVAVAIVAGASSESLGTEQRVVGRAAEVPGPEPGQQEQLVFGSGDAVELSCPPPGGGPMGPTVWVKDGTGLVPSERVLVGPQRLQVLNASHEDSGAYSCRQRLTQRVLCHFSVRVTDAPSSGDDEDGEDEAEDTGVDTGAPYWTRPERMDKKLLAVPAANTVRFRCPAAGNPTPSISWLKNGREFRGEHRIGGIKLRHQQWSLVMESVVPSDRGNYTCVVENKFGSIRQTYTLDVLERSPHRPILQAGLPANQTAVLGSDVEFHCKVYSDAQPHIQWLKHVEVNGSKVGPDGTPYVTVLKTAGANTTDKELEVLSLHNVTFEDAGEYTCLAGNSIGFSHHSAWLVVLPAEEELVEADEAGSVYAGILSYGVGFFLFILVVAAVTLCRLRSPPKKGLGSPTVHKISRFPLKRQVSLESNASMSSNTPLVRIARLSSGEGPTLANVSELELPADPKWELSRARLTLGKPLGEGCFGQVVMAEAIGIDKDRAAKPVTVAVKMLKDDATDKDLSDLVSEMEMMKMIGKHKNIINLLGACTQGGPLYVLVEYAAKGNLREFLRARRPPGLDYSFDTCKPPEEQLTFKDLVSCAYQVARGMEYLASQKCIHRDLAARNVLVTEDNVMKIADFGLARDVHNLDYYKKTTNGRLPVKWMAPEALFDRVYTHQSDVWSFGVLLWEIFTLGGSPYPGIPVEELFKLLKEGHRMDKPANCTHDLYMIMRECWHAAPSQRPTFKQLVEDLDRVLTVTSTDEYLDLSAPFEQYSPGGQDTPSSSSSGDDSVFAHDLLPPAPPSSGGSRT
Hck, sequence (P08631 whole entry, looked up): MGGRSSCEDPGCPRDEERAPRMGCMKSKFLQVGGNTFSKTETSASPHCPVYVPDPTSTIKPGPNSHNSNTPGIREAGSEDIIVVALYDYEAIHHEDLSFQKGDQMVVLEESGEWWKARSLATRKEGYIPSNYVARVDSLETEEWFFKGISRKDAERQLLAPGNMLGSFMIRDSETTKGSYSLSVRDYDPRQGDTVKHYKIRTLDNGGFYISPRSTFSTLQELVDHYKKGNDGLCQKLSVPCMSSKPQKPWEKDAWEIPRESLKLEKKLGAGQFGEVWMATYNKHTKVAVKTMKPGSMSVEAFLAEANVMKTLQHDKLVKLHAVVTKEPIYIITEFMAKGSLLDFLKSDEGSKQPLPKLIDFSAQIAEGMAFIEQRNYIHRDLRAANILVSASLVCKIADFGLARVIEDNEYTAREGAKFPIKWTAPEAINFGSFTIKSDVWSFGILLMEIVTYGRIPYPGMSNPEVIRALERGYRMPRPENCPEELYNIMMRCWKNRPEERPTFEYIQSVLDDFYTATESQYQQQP
Fes, sequence (P07332 whole entry, looked up): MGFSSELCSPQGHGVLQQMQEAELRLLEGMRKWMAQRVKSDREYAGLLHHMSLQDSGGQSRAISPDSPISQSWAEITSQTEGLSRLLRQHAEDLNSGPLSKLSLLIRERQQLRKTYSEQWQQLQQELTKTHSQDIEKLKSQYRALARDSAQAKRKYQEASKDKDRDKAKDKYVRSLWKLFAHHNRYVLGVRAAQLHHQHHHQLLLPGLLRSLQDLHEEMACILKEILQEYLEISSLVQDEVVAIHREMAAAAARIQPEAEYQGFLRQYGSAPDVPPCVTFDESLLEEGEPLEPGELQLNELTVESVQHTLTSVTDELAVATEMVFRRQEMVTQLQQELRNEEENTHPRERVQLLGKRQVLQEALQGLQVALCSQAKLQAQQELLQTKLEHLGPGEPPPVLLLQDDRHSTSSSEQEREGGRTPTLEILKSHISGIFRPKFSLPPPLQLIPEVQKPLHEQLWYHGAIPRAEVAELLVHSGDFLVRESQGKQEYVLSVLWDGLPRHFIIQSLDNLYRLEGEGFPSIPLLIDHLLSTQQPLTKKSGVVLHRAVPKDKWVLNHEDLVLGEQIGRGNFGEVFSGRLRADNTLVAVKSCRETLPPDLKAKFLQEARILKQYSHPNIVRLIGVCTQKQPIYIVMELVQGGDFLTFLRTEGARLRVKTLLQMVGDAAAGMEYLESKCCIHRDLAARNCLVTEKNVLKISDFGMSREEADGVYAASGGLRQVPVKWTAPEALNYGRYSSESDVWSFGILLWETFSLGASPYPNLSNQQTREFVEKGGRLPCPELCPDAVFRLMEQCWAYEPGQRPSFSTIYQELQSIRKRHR
EPHB1, sequence (P54762 whole entry, looked up): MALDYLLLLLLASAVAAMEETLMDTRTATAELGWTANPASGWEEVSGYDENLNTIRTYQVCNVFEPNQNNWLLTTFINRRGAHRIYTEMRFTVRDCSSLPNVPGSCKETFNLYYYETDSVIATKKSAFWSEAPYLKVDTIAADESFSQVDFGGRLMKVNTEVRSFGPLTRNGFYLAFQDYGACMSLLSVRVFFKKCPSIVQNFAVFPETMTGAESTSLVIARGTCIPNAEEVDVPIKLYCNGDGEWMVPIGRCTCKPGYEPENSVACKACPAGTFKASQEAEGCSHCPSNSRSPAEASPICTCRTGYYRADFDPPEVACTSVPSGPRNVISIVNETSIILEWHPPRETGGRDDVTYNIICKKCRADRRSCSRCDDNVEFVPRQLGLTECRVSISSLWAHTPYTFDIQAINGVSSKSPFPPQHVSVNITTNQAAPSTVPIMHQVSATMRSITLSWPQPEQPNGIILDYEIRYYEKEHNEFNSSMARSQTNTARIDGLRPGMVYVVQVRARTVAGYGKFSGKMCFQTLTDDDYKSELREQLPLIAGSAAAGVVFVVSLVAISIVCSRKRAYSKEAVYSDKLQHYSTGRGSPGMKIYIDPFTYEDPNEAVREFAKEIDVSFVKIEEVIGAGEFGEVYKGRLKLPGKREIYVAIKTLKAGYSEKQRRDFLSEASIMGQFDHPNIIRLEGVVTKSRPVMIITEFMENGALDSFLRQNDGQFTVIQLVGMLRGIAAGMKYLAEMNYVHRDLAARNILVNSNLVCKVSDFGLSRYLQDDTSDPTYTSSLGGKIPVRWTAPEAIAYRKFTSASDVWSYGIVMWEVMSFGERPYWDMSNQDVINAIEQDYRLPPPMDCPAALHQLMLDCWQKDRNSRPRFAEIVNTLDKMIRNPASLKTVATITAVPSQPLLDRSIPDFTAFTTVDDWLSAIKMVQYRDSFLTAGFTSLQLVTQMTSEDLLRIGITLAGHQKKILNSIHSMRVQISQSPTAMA
MERTK, sequence (Q12866 whole entry, looked up): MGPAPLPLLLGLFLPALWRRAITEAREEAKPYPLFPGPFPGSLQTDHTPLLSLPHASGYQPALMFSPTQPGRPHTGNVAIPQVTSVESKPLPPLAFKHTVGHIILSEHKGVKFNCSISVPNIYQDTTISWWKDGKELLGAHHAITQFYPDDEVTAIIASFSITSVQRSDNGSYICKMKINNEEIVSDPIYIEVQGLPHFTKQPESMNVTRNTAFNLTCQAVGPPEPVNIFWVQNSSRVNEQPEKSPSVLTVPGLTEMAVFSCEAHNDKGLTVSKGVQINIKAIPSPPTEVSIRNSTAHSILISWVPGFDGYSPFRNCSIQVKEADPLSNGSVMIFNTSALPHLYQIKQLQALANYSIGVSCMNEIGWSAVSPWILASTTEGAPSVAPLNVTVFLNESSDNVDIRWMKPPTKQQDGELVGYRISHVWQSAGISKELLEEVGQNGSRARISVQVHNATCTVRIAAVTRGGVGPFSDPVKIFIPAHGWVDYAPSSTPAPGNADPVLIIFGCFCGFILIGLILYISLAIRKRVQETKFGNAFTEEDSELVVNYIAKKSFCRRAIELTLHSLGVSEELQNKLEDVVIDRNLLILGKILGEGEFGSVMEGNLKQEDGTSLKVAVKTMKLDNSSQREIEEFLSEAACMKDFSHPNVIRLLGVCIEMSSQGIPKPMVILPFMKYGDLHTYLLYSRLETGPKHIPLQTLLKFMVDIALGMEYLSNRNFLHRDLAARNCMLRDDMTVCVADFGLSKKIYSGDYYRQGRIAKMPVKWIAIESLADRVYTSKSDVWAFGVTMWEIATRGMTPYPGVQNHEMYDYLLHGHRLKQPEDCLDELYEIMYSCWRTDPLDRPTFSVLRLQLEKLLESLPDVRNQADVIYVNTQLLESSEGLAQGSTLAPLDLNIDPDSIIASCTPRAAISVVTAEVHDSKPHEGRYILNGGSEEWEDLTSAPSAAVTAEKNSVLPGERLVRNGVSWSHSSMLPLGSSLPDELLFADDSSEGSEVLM
FGFR1, sequence (P11362 whole entry, looked up): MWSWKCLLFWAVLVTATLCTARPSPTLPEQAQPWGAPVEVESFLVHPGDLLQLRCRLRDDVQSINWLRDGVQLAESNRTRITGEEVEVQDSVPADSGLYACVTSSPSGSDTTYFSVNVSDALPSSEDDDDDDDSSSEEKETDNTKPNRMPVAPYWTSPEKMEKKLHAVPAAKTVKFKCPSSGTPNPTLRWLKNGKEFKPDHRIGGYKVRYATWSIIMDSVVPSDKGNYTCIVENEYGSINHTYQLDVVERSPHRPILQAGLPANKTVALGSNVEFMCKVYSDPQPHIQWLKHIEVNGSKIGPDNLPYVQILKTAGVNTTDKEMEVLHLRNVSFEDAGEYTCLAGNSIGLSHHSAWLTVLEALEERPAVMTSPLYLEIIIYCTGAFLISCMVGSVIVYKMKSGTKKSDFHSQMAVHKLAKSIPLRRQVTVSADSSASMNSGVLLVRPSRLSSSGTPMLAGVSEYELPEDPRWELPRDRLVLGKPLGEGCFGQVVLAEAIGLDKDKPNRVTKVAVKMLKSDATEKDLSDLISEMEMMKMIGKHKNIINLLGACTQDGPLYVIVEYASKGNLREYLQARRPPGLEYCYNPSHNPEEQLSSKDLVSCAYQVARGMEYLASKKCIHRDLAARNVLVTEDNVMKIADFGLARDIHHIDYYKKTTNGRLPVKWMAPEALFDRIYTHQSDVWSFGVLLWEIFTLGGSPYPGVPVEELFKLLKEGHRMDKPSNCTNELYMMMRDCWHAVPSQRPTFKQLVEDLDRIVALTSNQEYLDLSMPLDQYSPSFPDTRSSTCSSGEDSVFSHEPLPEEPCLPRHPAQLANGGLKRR

Sequence	phosphorylation enrichment (AncSZ)	phosphorylation enrichment (EPHB1)	phosphorylation enrichment (EPHB2)	phosphorylation enrichment (FGFR1)	phosphorylation enrichment (FGFR3)	phosphorylation enrichment (Fer (mouse))	phosphorylation enrichment (Fes)	phosphorylation enrichment (Fyn)	phosphorylation enrichment (Hck)	phosphorylation enrichment (Jak2)	phosphorylation enrichment (MERTK)	phosphorylation enrichment (c-Abl (mouse))	phosphorylation enrichment (c-Src)	SH2 binding enrichment (Grb2 SH2)	SH2 binding enrichment (SHP2-C SH2)	SH2 binding enrichment (c-Src SH2)
VVQGIYGYHHY [UFSP2_Y285]	0.923	3.24	8.76	0.662	0.575	16.7	1.04	11.8	10.5	0.683	11.3	7.67	8.86	1.12	1.11	0.829
WAMPAYNRSKL [WWOX_Y293_L291P]	0.457	0.289	0.357	0.296	0.324	0.281	0.451	0.328	0.263	0.402	0.257	0.339	0.298	0.909	0.668	0.431
WANPEYTGGFK	1.29	0.549	0.383	0.43	0.646	0.413	1	0.422	0.575	0.734	0.364	0.917	0.685	0.801	0.618	0.656
WDLTDYLMKIL [ACTB_Y188_R183W]	1.25	0.556	0.548	0.539	0.777	0.529	1.32	0.519	0.611	1.23	0.477	0.894	0.487	1.66	1.92	1.32
WFPANYVKLLN [ITSN1_Y1132_S1137N]	1.06	3.81	1.21	0.599	0.76	0.511	1.14	0.53	0.536	1.45	0.587	0.759	0.532	0.919	2.22	0.646
WIPNQYPIISE [NOG_Y222_I220N]	0.86	0.427	0.526	0.63	0.671	0.541	0.98	0.361	0.465	0.862	0.342	0.747	0.636	0.788	0.827	0.605
WRPFGYPHRRR [BCS1L_Y181_R183H]	0.622	0.534	0.461	0.507	0.554	0.512	0.511	0.488	0.509	0.509	0.505	0.5	0.473	0.662	0.633	0.478
WTAHSYRMGSA [ARHGEF7_Y785_T790A]	0.683	0.477	0.457	0.556	0.438	0.38	0.736	0.503	0.443	0.679	0.377	0.495	0.48	0.96	0.794	0.545
YADGVYQALEE [DUOX2_Y70]	1.71	2.83	2.82	0.751	0.809	1.55	1.38	4.15	3.86	1.11	1.91	2.69	4.45	0.806	0.623	0.765
YDYKKYGKGLR [ZNF445_Y433]	0.41	0.318	0.276	0.371	0.536	0.373	0.517	0.323	0.366	0.444	0.358	0.48	0.346	0.939	1.02	0.749
YECKWYIPLTD [BCR_Y756_D752E]	1.48	0.843	0.774	0.812	1.1	0.657	1.56	0.469	0.585	1.48	0.922	1	0.576	0.704	0.665	0.477
YHRQLYHKCTH [F12_Y58]	0.886	0.41	0.537	0.453	0.606	0.467	0.795	0.378	0.53	0.653	0.571	0.641	0.481	1.34	1.22	1.44
YKEQGYHRLPP [RIN1_Y681]	0.478	0.363	0.364	0.622	0.544	0.365	0.507	0.462	0.35	0.977	0.346	0.455	0.431	1.11	0.917	0.904
YKGKNYKPLDL [RPL35_Y78_K77N]	0.423	0.277	0.246	0.32	0.362	0.267	0.697	0.334	0.276	0.59	0.333	0.575	0.391	0.9	0.846	0.516
YKIYLYTLNDN [FN1_Y1975]	1.34	0.801	0.711	0.541	1.02	0.671	1.52	0.479	0.563	1.4	0.383	1.09	0.431	0.794	0.851	0.483
YLQEIYNSNNQ [FGG_Y140]	0.918	0.617	0.561	0.436	0.606	0.512	1.23	1.59	1.54	0.998	0.441	0.692	1.84	0.679	0.77	0.51
YLRTGYSVPYG [TGM1_Y370]	0.834	0.4	0.534	0.495	0.532	0.489	0.685	0.42	0.493	0.893	0.666	0.777	0.408	0.848	1.64	9.92
YRIGPYQPSVP [MATR3_Y784_N787S]	0.55	0.421	0.434	0.749	0.759	0.429	0.708	0.514	0.481	0.524	0.425	0.62	0.449	0.829	0.996	0.668
YRVDCYKNFVA [FHL1_Y213_C209R]	0.984	0.559	0.595	0.565	0.753	0.493	1.22	0.504	0.487	0.837	0.507	0.543	0.415	1.51	0.984	0.556
YSIAQYCCRMG [LRRK2_Y2023_G2019S]	1.24	1.98	12	0.987	0.64	1.23	0.708	0.895	0.911	0.574	8.37	5.03	0.79	1.14	1.18	2.36
YSPYDYQPCLA [TNS1_Y798]	2.3	3.32	4.75	2.63	1.84	3.46	1.28	4.27	2.41	1.07	5.67	0.973	3.49	0.746	0.546	0.647
